Data reported in a protein production outcome set (Wang et al. 2014).

Test: label from the status in PepcDB records

Which protein production does the source give for “MLLAMALLIIGLLLVAYGADRLVFAASILCRTFGIPPLIIGMTVVSIGTSLPEIIVSAAASLHGQLDLAVGAALGSNITNILLILGLAALVRPFTVHSDVLRRELPLMLFVSVVAGSVLHDGQLSRSDGIFLLLLAVLWLLFIVKIARLAERQGNDSLTREQLAELPREGGLPVAFLWLGIALVIMPMATRMVIDNATVLANYFAMSELTLGLTVIAVGTSLPELATAIAGVRKGENDIAVGNLIGANIFNLAIVLGLPALIAPGEINPLAFGRDYSVMLLVSVVFALLCWRHPRQIGRGAGILLTGGFIVWLAMLYWLSPLLVG” here?
The protein production was “failed”.

With “MMCRSITLFLFALISIVVGKQLSAQSISELRLLIDSGRYDRALPIAQQLVAKNPKHADNNYMLGLLLYKAERYEEAIAPLRVAVSRRSDAYEMLADAYAKEYFFSEALAALEKQKVTLVKKKQETVSIDAGIDRMRRAVRLLDRAEWVEVIDSVRTNKADLLSAYNLIADNGRLEWVKGNQGEATSFVNGRGDHAIMTEKGEDGVYSLHEAHRIGGKWGNAIPLEKLNSRFNENYPSLRADGFTLLFASDRPDGIGGYDLYMTRRDLEDGIFLEPTLLGMPFNSPYNDYLLVYDELRGIGFFASDRFCPADVVTVYTFVINEEGRPVATDDMALKRAYASLKSIRATQDPERDYSRLIASARDNRTDAEKKASERQIYFPMQGMRIYTRWSDFQSSEAKSLYQDVMARKRKLEQAATRLEELRLLYGRASALERSGMKQEILRLENAIPPLEEEVGRMEKEVRNMELQAVQGF” as the sequence, how does the protein production read?
The protein production was “failed”.

For “MTNERVMQLIREAYEKNLTTLDLSENQLTQLPSEITELKNLTTLNLSGNQLTQLPSEIGELKSLTSFDLSVNQLTQLPPEIGELKNLTILNVYRNQLIQLLPEITELKNLTTLDLSLNKLTQLPPLEHHHHHH”, which protein production is on record?
The protein production was “failed”.

With “MIMTVLRQQPRAAGLVLGLIAANFLAWCWALQAFGDSGALMAASLLAWGYGLRHAVDADHIAAIDNVTRKMMQQGRRPFAVGAWFSLGHSSIVVLASAAIAATATAFSTQMSWLHDTGSVIGTAVSALFLLAMAFINLVILRSVWRSFRAWKRGEPVSDEIVSGGGVMSWLFGKTFRLISRSWQMYLVGFLFGLGFDTATEIGVLGISAAGASSGISVWSIMVFPALFASGMALVDTLDNVLMVGAYGWAFSKPQRKLYYNMTITGTSVVVALFIGGLEALGLLMDKFALSGGIWRWVGALNDNLGDAGFVVVGLFVACWALSVLNYRWRGYDNLAR” as the sequence, how does the protein production read?
Its protein production is “failed”.

With “MGIKEKEIELETLKREIAQAEASLEQDFIKYMVDKTNEKVEDLFFSNKPEFYRFVFTEQNNYLREKLTDKVGRAMDLSDEIQRDKTENESLENGTKFKKRFVFELQNDLIFLRTKRNTYSAKTEHENFQERLLAAKDTFRLIKANDFKTKIYPYQITLRLKTKHIIVFRWLKKEIIKRFVKKDLFTETLSIKITDKKGQKYALIANYNHASDIIELMLDDKTYTTTLYYQKPLFDLIKNSNFNLTIKDNTLEINQAKKRLFV” as the sequence, how does the protein production read?
The protein production was “failed”.

Which protein production does the source give for “MNELDVREFYQKQFELSNYDINTERWLEQLAKEVKEQIGYPFQSMLELGAGNGGFARAMSNLNVKMTTVELVPELVMFAKEHSTNDIEVHCADFYKINFEEKFDIVTYLDGFGVGTDEEQLFLLKRIYNWLKDDGCALIDIYQPLYWEKANGQEMPIYSAMRKYEYDSENARMLDHWWEKDSSNDIVTQSLRCYTIDEISNLCAEARFSIVGIFPGGAYDFEERKYKEQASLNECLSYRIKVKKSKD” here?
The protein production was “failed”.

With “MKKMLKVMLATLVLGWAVMAHAEDPHVEYTDAIGKGDLKVVKQYFNNPYKVDELFFAWSGLEIAANKGQLEMVKFFVENGADVNYKHPITKMTALHLAAYQGNKDVVKYLIDHGADVNAKLRGNVSILRALRDEGRTDMVDFLIAAGAKDDGCQEKKCY” as the sequence, how does the protein production read?
Its protein production is “failed”.

Which protein production does the source give for “TQNLREKQEIAKRAACDIQDHECIFLDAGSSTFELIQYIEAKDITVVTNGMTHVEELLKHGIKTLMVGGQVKPTTMATVGANALETLRRYCFDRAFIGMNGIDVKYGLTTPDEQEALIKETAMKLSNHKYVLVDQSKFNQIYFARVSILDGLSIITSQKAMQSKMTEAYMNEFNFIGGKS” here?
The protein production was “failed”.

For “MAIQVKASLRKNPQDKKAAGKYYAQVVLAPEMTQRQIIDQIADRCTVTGSDVKAVLDALMTVIKRNLANGSPIRLGDLGSFRPSVSGIGSENVDKFTASNVKKARVIYVPSAEIKEAVAMYAFSKVGATAEGGNTEKPGGGDIDNPGGGDEEAPDPTVLEHHHHHH”, which protein production is on record?
The protein production was “not failed”.

Which protein production does the source give for “MTLTQQKVKFFSKAYHDVKRLYLSAFPPRERFPYFCLLLNSLRSLVTCYAYYDKERFVGFAYIIESKEQVFILFLAVNGSVRSKGYGSMILAQIREYAGRKPLILTIEPVEKDSPNSEQRRQRLSFYERNGYQLTSHYYYEGQERYQILTTEQSIDLERFQKLVKRAVLGLVLITV” here?
Its protein production is “failed”.

Which protein production does the source give for “MSLILLGALSLASSTFAQTWIWYPGDYEIWLGNQMNNRRTERGAFFPPFWKTDSHYVVVEFSKVLNLSEPEEVFIAAEGTYNVKLDGKLQFGMPETLLLPAGKHSLNIKVWNQATPPTIYVKGKTVNSDSSWRVTYEDKEWIDESGKASDTSATIYMDAGCWNFDGATQRPSQFSLMREPQQPVAKTEQPEGGILYDFGKETFGFITLKNLSGKGKIDLYYGESPEEAKDKAYCETLDKLLLEPGQITDLAIRSTSPLHHSDNEYTLENSKAFRYVYITHEPEVQIGEVSMQYEYLPEEYRGNFRCNDEELNCIWEVGAYTMHLTTREFFIDGIKRDRWVWSGDAIQSYLMNYYLFFDSESVKRTIWLLRGKDPVTSHSNTIMDYTFYWFLSVYDYYMYSGDRHFVNQLYPRMQTMMDYVLGRTNKNGMVEGMSGDWVFVDWADGYLDKKGELSFEQVLFCRSLETMALCADLVGDKDGQQKYEKLASALKAKLEPTFWNNQKQAFVHNCVDGRQSDAVTRYANMFSVFFDYLNADKQQAIKQSVLLNDEILKITTPYMRFYELEALCALGEQETVMKEMKAYWGGMLKAGATSFWEKYNPEESGTQHLAMYGRPYGKSLCHAWGASPIYLLGKYYLGVKPTKEGYKEFAVSPVLGGLKWMEGTVPTPNGDIHVYMDNKTIKVKATEGKGYLTIQSRRQPKANMGTVEKVSEGVWRLWIDSPEERIVTYRLEGHHHHHH” here?
The protein production was “not failed”.

With “MKHLTVYFLLALQGVLFSFSLSAATPQNAIAYHDGNVRFSVLTDGVIRMEWSPSGSFTDDPSFVAIHRNLPVPKYTVQNKNATVVISTARMKLKYKKGQGPFTKDNLTITSAKGMFPFQWTPGTIQKGNLKGTDRTLDGFEGDHNIYSHQDMKLEDGLLSTDGWTLIDDSKNFLFDNSEWAWVKEREHKDGQDWYFMAYGHDYKAALKDFTVFAGKVPLPPRYAFGYWWSRYWSYSDKEMRQLVDNFHTYNIPLDVLVVDMDWHYTDPGFGGWTGWTWNRRLFPDPAKFLGYLKSNDLKITLNLHPADGVAPYEEKYPEMAQWMGVDTAKQERIPWVVSDKRFINGMFNKVLRPMEKQGVDFWWLDWQQWMYDKKVDSLSNTWWINYVFFSDMERNRDTRPMLYHRWGGLGNHRYQIGFSGDAVISWKSLEFQPYFTNCASNVLYGYWSHDIGGHMFKGGDKEILDPELFTRWMQYGALTPVMRTHSTKNSVLNKELWNFKGDYFEALRNSILFRYQLAPYIYTMARETYDNGISICRPMYYDYPEAKEAYDFKSEYMFGDQILVAPITTPMQNGLSTVKVWLPEGNDWFEWTTGTLLKGGQIIERSFTLTEYPVYVKAGSVLPLYNRVKNLNSNSEEIIVNIFPGENGSFTFYEDNGNDKYYANEYARTRMYTERKENHLTVTVGPRQGKYRNMPTDRQFKIKVLGSAIPETITINGNRAEYEYIGDELALLITIPQTACDQEKTIEIQYSTSIPELNDGIVSQFKRFSKAITALKYRDAGIVLTPTMGATEATSIALTYSPERFNELIETFKRNYSQMPEMLKEQKLNEANSQWFMKAIGWKK” as the sequence, how does the protein production read?
The protein production was “failed”.

For “MIDILNLALPYFGLIFVGFACGRWKKLPEQGLVWMNFFLVFVSLPALFFRIMSKTPFEELNNLPFVLATTLATAIAFFLSGMLGRLIGKLSMREATMAALSGGYGNIGYMGPGLALAVLGTQAAAPTALIFCFDTIFLFSIVPLGMALTAADKRPLIPTIIAVLREILFHPLIVAAYCGAAAAAFHVELPVAVDKMLAFLQNAAAPVALFTLGVTVALRPFGRVPWEIPSLVAVKLLLHPVIVFCLVLAFGPFSPEWAATAVLMASLPPALNVFVIARQYNTWVEPASVAVLIGTFMSVVTLTTVMWLIRTGQIPFPA”, which protein production is on record?
Its protein production is “failed”.
